T1: LAG-3 D1 insertion-loop peptide P60[…]75 (Homo sapiens)
T1 chain: PGPHPAAPSSWGPRPR

B1: LAG3.1-G4P (antibody, V domains shown)
VH: QVQLQQWGAGLLKPSETLSLTCAVYGGSFSDYYWNWIRQPPGKGLEWIGEINHNGNTNSNPSLKSRVTLSLDTSKNQFSLKLRSVTAADTAVYYCAFGYSDYEYNWFDPWGQGTLVTVSS
VL: EIVLTQSPATLSLSPGERATLSCRASQSISSYLAWYQQKPGQAPRLLIYDASNRATGIPARFSGSGSGTDFTLTISSLEPEDFAVYYCQQRSNWPLTFGQGTNLEIK
B2: LAG-3.1-G4P-FITC (fluoresceinated LAG3.1-G4P, parent antibody of relatlimab) (antibody, V domains shown)
VH: B1 VH
VL: B1 VL
B3: recombinant human fibrinogen-like protein-1 (FGL1)–mFc fusion protein (Fc fusion)
chain: LEDCAQEQMRLRAQVRLLETRVKQQQVKIKQLLQENEVQFLDKGDENTVIDLGSKRQYADCSEIFNDGYKLSGFYKIKPLQSPAEFSVYCDMSDGGGWTVIQRRSDGSENFNRGWKDYENGFGNFVQKHGEYWLGNKNLHFLTTQEDYTLKIDLADFEKNSRYAQYKNFKVGDEKNFYELNIGEYSGTAGDSLAGNFHPEVQWWASHQRMKFSTWDRDHDNYEGNCAEEDQSGWWFNRCHSANLNGVYYSGPYTAKTDNGIVWYTWHGWWYSLKSVVMKIRPNDFIPNVI
B4: recombinant human LAG-3–Fc protein (hLAG-3–hFc) (Fc fusion)
chain: LQPGAEVPVVWAQEGAPAQLPCSPTIPLQDLSLLRRAGVTWQHQPDSGPPAAAPGHPLAPGPHPAAPSSWGPRPRRYTVLSVGPGGLRSGRLPLQPRVQLDERGRQRGDFSLWLRPARRADAGEYRAAVHLRDRALSCRLRLRLGQASMTASPPGSLRASDWVILNCSFSRPDRPASVHWFRNRGQGRVPVRESPHHHLAESFLFLPQVSPMDSGPWGCILTYRDGFNVSIMYNLTVLGLEPPTPLTVYAGAGSRVGLPCRLPAGVGTRSFLTAKWTPPGGGPDLLVTGDNGDFTLRLEDVSQAQAGTYTCHIHLQEQQLNATVTLAIITVTPKSFGSPGSLGKLLCEVTPVSGQERFVWSSLDTPSQRSFSGPWLEAQEAQLLSQPWQCQLYQGERLLGAAVYFTELSSPGAQRSGRAPGALPAGHL

Assays:
[1] = molecular target: cynomolgus monkey LAG-3 (cynomolgus monkey (endogenous in primary CD4+ T cells)); assay: flow cytometry on cells
[2] = molecular target: hLAG-3–mFc (Homo sapiens) (UniProt P18627); assay: flow cytometry on cells
[3] = molecular target: full-length human LAG-3 on CHO-S cells (CHO-huLAG-3) (Homo sapiens) (UniProt P18627); assay: flow cytometry on cells
[4] = molecular target: recombinant human LAG-3–Fc protein (hLAG-3–hFc) (human) (UniProt P18627); assay: ELISA
[5] = molecular target: recombinant human LAG-3–Fc protein (hLAG-3–hFc) (human) (UniProt P18627); assay: SPR
native human LAG-3 = native human LAG-3 (Homo sapiens, endogenous, UniProt P18627); assay: immunostaining of cells or tissue
[6] = molecular target: T1, LAG-3 D1 insertion-loop peptide P60[…]75; assay: ELISA
[7] = molecular target: LAG-3 endogenous in normal human pituitary (adenohypophysis) (Homo sapiens, endogenous, UniProt P18627); assay: immunostaining of cells or tissue
[8] = molecular target: human LAG-3 fusion protein (used for pre-absorption of LAG-3.1-G4P-FITC) (Homo sapiens, UniProt P18627); assay: immunostaining of cells or tissue
[9] = molecular target: B4; assay: BLI
[10] = molecular target: B3; assay: ELISA

relatlimab (antibody)
EC50 [1]: 29.1 nM
IC50 [2]: 0.67 nM
EC50 [3]: 1.46 nM
EC50 [4]: 0.49 nM
IC50 [4]: 0.019 nM
Kd [5]: 0.12 nM

relatlimab Fab fragment (Fab 3.5)
Kd [5]: 10 nM

B1
binding result (native human LAG-3): binds
EC50 [6]: 0.44 nM

B2
binding result [7]: binds
binding result [8]: binds

B3
Kd [9]: > 1000 nM

B4
EC50 [10]: 0.085 nM
